According to patent US7238857, “Ethylene-responsive transcription coactivators in plants” (Japan and Science and Technology Agency):
Residue numbers refer to the chain shown, from its start.

B1: mERE (mutant GCC box) (dsDNA)
DNA 1: GATCTCATAAGATCCTCCACTAAAATAAGACCGATCAAATAAGATCCTCCATG
DNA 2: GATCCATGGAGGATCTTATTTGATCGGTCTTATTTTAGTGGAGGATCTTATGA
B2: ERE (2x GCC box) (dsDNA)
DNA 1: B1 DNA 1 with T13G, T16G, T45G, T48G
DNA 2: B1 DNA 2 with A10C, A13C, A42C, A45C

Key:
ERF2 [1] = target: T1, ERF2 (Nicotiana tabacum, UniProt Q40479 Q40479:1-233); assay: competition; 10 ng unlabeled mERE did not inhibit ERF2-ERE complex; details: tags: His tag (pET15b, Novagen); GATC 5' overhangs
T1 sequence (Q40479 whole entry, the tested form may be a part, one chain of several): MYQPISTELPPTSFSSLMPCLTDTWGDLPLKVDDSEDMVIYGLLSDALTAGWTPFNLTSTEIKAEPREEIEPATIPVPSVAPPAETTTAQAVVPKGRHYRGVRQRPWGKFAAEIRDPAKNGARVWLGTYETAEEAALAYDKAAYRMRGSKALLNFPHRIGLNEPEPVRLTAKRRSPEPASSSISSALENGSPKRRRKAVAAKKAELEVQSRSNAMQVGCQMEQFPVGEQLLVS
Text: The binding activity of ERF2 to ERE was investigated using gel-shift assays. The DNA fragment containing a 53 bp wild-type ethylene-responsive element (ERE) was used as a DNA probe after labeled with a radioactive tracer using (γ^-32P)ATP and T4-polynucleotide kinase (Takara Bio INC., Kyoto, Japan). Multi-copied and linked ERE (SEQ ID NO: 3 and 4) or mERE (SEQ ID NO: 5 and 6) fragments (FIG. 1) were used as wild-type and mutant-type competitors, respectively. mERE (mutant-type) was similar to ERE (wild-type), except that the DNA nucleotide sequence in the GCC box contains base substitutions. The mixture of 1 ng of radio-labeled DNA probe (1,000 to 10,000 cpm) and 10 ng of recombinant ERF without or with 10 ng of a competitor DNA in 10 µl of the binding buffer shown in Table 1 was incubated for 45 minutes at 25° C.
The samples after binding reaction were subjected to 4% polyacrylamide gel electrophoresis (acrylamide:bisacrylamide=39:1, 1 mm in thickness, 13 cm long) containing 0.25×TB buffer (22.5 mM Tris-borate, pH 8.0) at 25° C. for 3 hrs at 100 V. The gel was dried and exposed to Fuji Imaging Plate® (Fuji Photo Film Co. Ltd., Kanagawa, JAPAN; a radiosensitive layer of phosphor crystals on a polyester backing plate). The electrophoresis mobility pattern was visualized using Bio-Image Analyzer (Fuji Photo Film Co. Ltd., Kanagawa, JAPAN). […]

ERF1 = ERF1 (Nicotiana tabacum, UniProt Q40476 Q40476:1-236); assay: in vitro transcription activation of pERE in HeLa nuclear extract; details: tags: His tag (pET15b, Novagen); label: 32P 5' end; GATC 5' overhangs
Chain of ERF1 (Q40476 whole entry, one chain of several): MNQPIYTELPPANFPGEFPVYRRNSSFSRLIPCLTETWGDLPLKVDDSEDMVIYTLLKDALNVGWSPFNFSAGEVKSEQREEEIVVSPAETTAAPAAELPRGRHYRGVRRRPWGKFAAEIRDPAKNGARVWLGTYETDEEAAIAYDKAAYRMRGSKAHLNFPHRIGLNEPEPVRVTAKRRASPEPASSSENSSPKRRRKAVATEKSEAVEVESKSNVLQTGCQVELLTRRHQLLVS
Protocol: (§1) Moreover, the in vitro transcription reaction was assayed in the following way. The HeLa nuclear extracts used for the in vitro transcription were prepared as reported previously (Meth. Enzymol. 101:582–598(1983)).
(§2) The transcription reaction mixture was incubated for 60 min at 30° C. and 75 µl of the reaction stopping solution (Table 2) was added to stop the reaction. Then, 100 µl of PCIAA (50% phenol, 48% chloroform, 2% isoamilalcohol) was added to the reaction mixture to recover the aqueous phase. After that, 100 µl of CIAA (96% chloroform, 4% isoamilalcohol) was added to the aqueous phase and the aqueous phase was recovered. Then, 10 µl of 3 M sodium acetate and 300 µl of ethyl alcohol were added to the aqueous phase to precipitate nucleic acid. The nucleic acid was dried and was dissolved in 10 µl of urea solution (5M urea, 1 mM EDTA, 0.1% bromophenol blue). The nucleic acid sample was subjected to electrophoresis using 6% polyacrylamide gel (acrylamide:bisacrylamide=19:1, 1 mm of thickness, 12.5 cm long) containing 89 mM Tris-borate (pH 8.3), 2 mM EDTA and 8 M urea at 300 V. When bromophenol blue in the sample had migrated to the lowest edge of the gel, the gel was removed and was soaked in 1 L of water containing 5% methanol and 5% acetic acid and then in 1 L of water containing 5% methanol, each for 20 min. Then, the gel was attached to a filter paper, dried and exposed to Fuji Imaging Plate overnight. RNA was visualized using Bio Image Analyzer.
(§3) As in the case of reference example 2, the inventors examined the activity of transcriptional activation of other ERFs. […] The activity of transcriptional activation of each ERF was as follows; amplification by ERF3, 3 fold; that by ERF4, 3.5 fold; that by ERF1, 4 fold; that by ERF2, 5 fold.

ERF4 = ERF4 (Nicotiana tabacum, UniProt Q40478 Q40478:1-291); assay: as above; details: tags: His tag (pET15b, Novagen); label: 32P 5' end; GATC 5' overhangs
Chain of ERF4 (Q40478 whole entry, one chain of several): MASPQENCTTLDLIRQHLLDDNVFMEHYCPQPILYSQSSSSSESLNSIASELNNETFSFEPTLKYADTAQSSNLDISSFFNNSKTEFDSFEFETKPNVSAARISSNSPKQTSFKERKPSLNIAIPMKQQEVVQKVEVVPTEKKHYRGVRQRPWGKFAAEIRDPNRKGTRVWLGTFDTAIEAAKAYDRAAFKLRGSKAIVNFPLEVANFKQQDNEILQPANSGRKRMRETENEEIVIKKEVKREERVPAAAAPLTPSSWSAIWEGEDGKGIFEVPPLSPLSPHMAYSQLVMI
Protocol: as §1, §2, §3

ERF3 = ERF3 (Nicotiana tabacum, UniProt Q40477 Q40477:1-225); assay: as above; details: tags: His tag (pET15b, Novagen); label: 32P 5' end; GATC 5' overhangs
Chain of ERF3 (Q40477 whole entry, one chain of several): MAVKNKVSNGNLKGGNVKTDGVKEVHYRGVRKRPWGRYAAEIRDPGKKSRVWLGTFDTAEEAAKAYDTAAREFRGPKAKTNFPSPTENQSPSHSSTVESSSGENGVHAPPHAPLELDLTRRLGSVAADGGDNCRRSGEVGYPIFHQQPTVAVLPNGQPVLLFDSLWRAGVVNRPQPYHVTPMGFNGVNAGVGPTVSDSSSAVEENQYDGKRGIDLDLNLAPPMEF
Protocol: as §1, §2, §3

ERF2 [2] = target: T1, ERF2; assay: in vitro transcription activation of pERE in HeLa nuclear extract with tTBP; details: tags: His tag (pET15b, Novagen); label: 32P 5' end; GATC 5' overhangs
Protocol: as §1
as §2, with “Then, the gel was attached to a filter paper, dried and exposed to Fuji Imaging Plate overnight. RNA was visualized using Bio Image Analyzer.” left out

Binder	binding result (ERF2 [1])	activity (ERF1) [fold]	activity (ERF4) [fold]	activity (ERF3) [fold]	activity (ERF2 [2]) [fold]
B1	no binding				
B2		4	3.5	3	5
